The Kd is the equilibrium constant for the complex coming apart. One may read the koff as a measure of how fast the partners let go of each other. As usually defined, the kon is the rate constant with which the complex forms.

For the experiment, the target named is T1, C-reactive protein (recombinant human CRP) (human) (UniProt P02741).
T1 sequence: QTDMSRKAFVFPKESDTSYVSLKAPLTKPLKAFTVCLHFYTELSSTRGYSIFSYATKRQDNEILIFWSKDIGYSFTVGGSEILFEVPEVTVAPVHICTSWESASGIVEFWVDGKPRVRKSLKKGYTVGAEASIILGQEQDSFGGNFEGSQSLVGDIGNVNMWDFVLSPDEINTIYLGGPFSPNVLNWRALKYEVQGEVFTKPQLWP
Kind of experiment: SPR; Biacore T200; CRP immobilised on a CM5 chip by amine coupling (1074 RU); antibodies 0.50-75 nM injected at 30 µL/min, association and dissociation 120 s; 1:1 Langmuir global fit. For orientation: In SPR one partner is held on a chip, and binding of the other changes the refractive index at the surface.

B1: anti-CRP single-chain variable fragment (scFv) (scFv, V domains shown)
VH: QVQLQQSGAELVKPGASVKLSCTASGFNIKDYYMHWVKQRTEQGLEWIGRIDPEDGETKYAPKFQGKATITADTSSNTAYLQLSSLTSEDTAVYYCARGYYGSEAMDYWGQGTSLTVSS
VL: SIVMTQSHKFMSTSVGDRVSITCKASQDVNTAVAWYQQKPGQSPKLLIYWASTRHTGVPDRFTGSGFGTDYTLTISSVQAEDLALYYCQQHYSTPWTFGGGTKLEIK
For the molecule B1, the Kd came out at 4.8 nM, the koff came out at 0.0016 s⁻¹ and the kon was found to be 350000 M⁻¹ s⁻¹.

B2: anti-CRP scFv-SpyTag (scFv, V domains shown)
VH: QVQLQQSGAELVKPGASVKLSCTASGFNIKDYYMHWVKQRTEQGLEWIGRIDPEDGETKYAPKFQGKATITADTSSNTAYLQLSSLTSEDTAVYYCARGYYGSEAMDYWGQGTSLTVSS
VL: SIVMTQSHKFMSTSVGDRVSITCKASQDVNTAVAWYQQKPGQSPKLLIYWASTRHTGVPDRFTGSGFGTDYTLTISSVQAEDLALYYCQQHYSTPWTFGGGTKLEIK
With B2, the Kd worked out at 5 nM, the koff turned out to be 0.0017 s⁻¹ and the kon came to 340000 M⁻¹ s⁻¹.

B3: monovalent antibody-enzyme complex (anti-CRP scFv-ST joined to GDH-SC) (complex)
VH: QVQLQQSGAELVKPGASVKLSCTASGFNIKDYYMHWVKQRTEQGLEWIGRIDPEDGETKYAPKFQGKATITADTSSNTAYLQLSSLTSEDTAVYYCARGYYGSEAMDYWGQGTSLTVSS
VL: SIVMTQSHKFMSTSVGDRVSITCKASQDVNTAVAWYQQKPGQSPKLLIYWASTRHTGVPDRFTGSGFGTDYTLTISSVQAEDLALYYCQQHYSTPWTFGGGTKLEIK
As to B3, the Kd turned out to be 28.7 nM, the koff turned out to be 0.0019 s⁻¹ and the kon was 67000 M⁻¹ s⁻¹.

The values are drawn from publication PMC10931773.
